# Patent publication US20090099093A1 (Stanford University, published 2009)
# No end group written: not given here.
# Biological target: Mushroom tyrosinase (mushroom, UniProt C7FF04 1-392)
# Assay: cell-based or functional assay
# Chain of Mushroom tyrosinase (C7FF04 1-392): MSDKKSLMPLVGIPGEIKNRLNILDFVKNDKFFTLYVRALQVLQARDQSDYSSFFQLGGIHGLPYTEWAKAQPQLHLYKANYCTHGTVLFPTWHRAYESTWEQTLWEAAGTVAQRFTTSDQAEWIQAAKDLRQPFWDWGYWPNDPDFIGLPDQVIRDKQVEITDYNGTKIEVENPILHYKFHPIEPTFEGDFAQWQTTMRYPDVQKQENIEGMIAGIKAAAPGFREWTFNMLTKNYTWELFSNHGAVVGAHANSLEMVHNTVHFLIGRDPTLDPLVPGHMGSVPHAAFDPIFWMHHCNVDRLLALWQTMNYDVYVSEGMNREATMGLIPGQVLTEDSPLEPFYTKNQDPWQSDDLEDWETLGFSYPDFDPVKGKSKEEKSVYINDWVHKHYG
row,Binder,"IC50 (inhibition of mushroom tyrosinase activity, dopachrome at 475 nm, L-tyrosine substrate)"
1,Pro-Leu-Gly-OH [PLG-OH],2730 µM
2,SFLLRN [SF peptide (SFLLRN)],8000 µM
3,RADSRADC [RA peptide (RADSRADC)],123 µM
